# Measured values taken from patent publication US20080193431.
# T1: Ac-DEVD-CHO
# T1 chain: DEVD
# B1: caspase-3 (protein)
# chain: SGISLDNSYKMDYPEMGLCIIINNKNFHKSTGMTSRSGTDVDAANLRETFRNLKYEVRNKNDLTREEIVELMRDVSKEDHSKRSSFVCVLLSHGEEGIIFGTNGPVDLKKITNFFRGDRCRSLTGKPKLFIIQACRGTELDCGIETDSGVDDDMACHKIPVEADFLYAYSTAPGYYSWRNSKDGSWFIQSLCAMLKQYADKLEFMHILTRVNRKVATEFESFSFDATFHAKKQIPCIVSMLTKELYFYH
# Molecular target: T1, Ac-DEVD-CHO
protein,measurement,value
B1,"enzyme activity (caspase-3 cleavage of PPC, HPLC)",completely blocked the enzyme activity
